Targets include BMP-7 Y78H (human) (UniProt P18075); BMP-7 E60K (human) (UniProt P18075); BMP-6 (human) (UniProt P22004); BMP-7 (human) (UniProt P18075).
Experiment in all cases: cell-based or functional assay
Test [1] addresses BMP-7 R48Q/E60K/Y65N (human) (UniProt P18075).
For test [2], the target named is Rev K60E (revertant of 80-1) (human) (UniProt P18075).

Sequence of UniProt P22004 (P22004 375-513): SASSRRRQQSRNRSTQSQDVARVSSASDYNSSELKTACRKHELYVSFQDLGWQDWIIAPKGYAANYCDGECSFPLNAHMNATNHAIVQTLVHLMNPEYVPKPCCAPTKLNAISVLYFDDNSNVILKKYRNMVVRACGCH

B1: Noggin (protein, UniProt Q13253 28-232, looked up)
chain: QHYLHIRPAPSDNLPLVDLIEHPDPIFDPKEKDLNETLLRSLLGGHYDPGFMATSPPEDRPGGGGGAAGGAEDLAELDQLLRQRPSGAMPSEIKGLEFSEGLAQGKKQRLSKKLRRKLQMWLWSQTFCPVLYAWNDLGSRFWPRYVKVGSCFSKRSCSVPEGMVCKPSKSVHLTVLRWRCQRRGGQRCGWIPIQYPIISECKCSC
For B1, the relative activity at 1000 ng/ml of noggin, reporter gene assay, conditioned media with BMP-7 Y78H (human) was found to be 31%. Also, the relative activity at 1000 ng/ml of noggin, reporter gene assay, conditioned media with BMP-7 E60K (human) worked out at 53%. For the same molecule, the relative activity at 1000 ng/ml of noggin, reporter gene assay, conditioned media in test [1] stood at 63%. Besides, in test [2], the relative activity in the presence of noggin at 100 ng/ml (N1), reporter gene assay was found to be 86%; the relative activity in the presence of noggin at 500 ng/ml (N2), reporter gene assay was 51%; the relative activity in the presence of noggin at 1000 ng/ml (N3), reporter gene assay was found to be 32%. Further, in the test with BMP-6 (human), the BMP-induced ID-1 gene expression by QPCR in hMSCs, BMP 50 ng/ml, Noggin 1.5 ug/ml, level against background (times background) is 2; the maximum percent inhibition by Noggin of BMP-induced luciferase activity, A549-BRE cells, BMP 150 ng/ml stood at 25%; the relative activity at 1000 ng/ml of noggin, reporter gene assay, conditioned media was 73%. In addition, the relative activity at 1000 ng/ml of noggin, reporter gene assay, conditioned media in the test with BMP-7 (human) came to 15%.

These data come from US20110039773A1.
